Key:
[1] = molecular target: HA-tagged Atp1a3 T705A (mouse) (UniProt Q8VCE0); assay: co-IP; HEK 293T cells co-transfected with HA-tagged Atp1a3 (WT, TA or TD) and YFP-β1 or YFP-β2; α3 precipitated with anti-HA beads (clone 3F10) 2 h at 4°C in IP buffer (20 mM Tris pH 8.0, 150 mM NaCl, 1% NP40, 10% glycerol); β detected with a GFP antibody; band densitometry normalised to WT
[2] = molecular target: HA-tagged Atp1a3 T705D (mouse) (UniProt Q8VCE0); assay: as above

Row | Substance | co-precipitated higher (complex-glycan) β band, relative intensity normalized to WT (normalized to WT) [1] | co-precipitated lower (intracellular) β band, relative intensity normalized to WT (normalized to WT) [1] | co-precipitated higher (complex-glycan) β band, relative intensity normalized to WT (normalized to WT) [2] | co-precipitated lower (intracellular) β band, relative intensity normalized to WT (normalized to WT) [2]
1 | YFP-tagged Na,K-ATPase β1 subunit (rat) (from UniProt P07340 1-304) (natural protein) | 58.3 | 101 | 6.59 | 95
2 | YFP-tagged Na,K-ATPase β2 subunit (human) (from UniProt P14415 1-290) (natural protein) | 16.3 | 82.7 | 2.81 | 80.5

From paper PMC6312924
